Reference: IntAct's records for PubMed 20059542

B1: 26S proteasome non-ATPase regulatory subunit 4 (Homo sapiens), P55036 (parent)
chain: MVLESTMVCVDNSEYMRNGDFLPTRLQAQQDAVNIVCHSKTRSNPENNVGLITLANDCEVLTTLTPDTGRILSKLHTVQPKGKITFCTGIRVAHLALKHRQGKNHKMRIIAFVGSPVEDNEKDLVKLAKRLKKEKVNVDIINFGEEEVNTEKLTAFVNTLNGKDGTGSHLVTVPPGPSLADALISSPILAGEGGAMLGLGASDFEFGVDPSADPELALALRVSMEEQRQRQEEEARRAAAASAAEAGIATTGTEDSDDALLKMTISQQEFGRTGLPDLSSMTEEEQIAYAMQMSLQGAEFGQAESADIDASSAMDTSEPAKEEDDYDVMQDPEFLQSVLENLPGVDPNNEAIRNAMGSLASQATKDGKKDKKEEDKK
partner: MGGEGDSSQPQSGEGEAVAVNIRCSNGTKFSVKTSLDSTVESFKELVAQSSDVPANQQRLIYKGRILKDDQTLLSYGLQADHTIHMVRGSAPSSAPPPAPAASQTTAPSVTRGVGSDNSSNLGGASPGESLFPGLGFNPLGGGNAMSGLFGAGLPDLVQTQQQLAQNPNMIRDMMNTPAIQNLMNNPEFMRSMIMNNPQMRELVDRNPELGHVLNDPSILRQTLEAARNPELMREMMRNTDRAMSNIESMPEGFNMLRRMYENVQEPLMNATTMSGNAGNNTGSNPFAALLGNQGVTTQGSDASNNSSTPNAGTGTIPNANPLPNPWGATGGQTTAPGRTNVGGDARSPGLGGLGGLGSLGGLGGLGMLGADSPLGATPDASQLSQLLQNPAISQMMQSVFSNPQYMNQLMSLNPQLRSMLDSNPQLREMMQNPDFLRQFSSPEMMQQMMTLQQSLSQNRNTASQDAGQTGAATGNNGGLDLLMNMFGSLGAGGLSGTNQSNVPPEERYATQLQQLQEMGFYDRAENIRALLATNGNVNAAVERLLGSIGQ
B2: Ubiquitin domain-containing protein DSK2 (Saccharomyces cerevisiae), P48510 (parent)
chain: MSLNIHIKSGQDKWEVNVAPESTVLQFKEAINKANGIPVANQRLIYSGKILKDDQTVESYHIQDGHSVHLVKSQPKPQTASAAGANNATATGAAAGTGATPNMSSGQSAGFNPLADLTSARYAGYLNMPSADMFGPDGGALNNDSNNQDELLRMMENPIFQSQMNEMLSNPQMLDFMIQSNPQLQAMGPQARQMLQSPMFRQMLTNPDMIRQSMQFARMMDPNAGMGSAGGAASAFPAPGGDAPEEGSNTNTTSSSNTGNNAGTNAGTNAGANTAANPFASLLNPALNPFANAGNAASTGMPAFDPALLASMFQPPVQASQAEDTRPPEERYEHQLRQLNDMGFFDFDRNVAALRRSGGSVQGALDSLLNGDV
B3: 26S proteasome non-ATPase regulatory subunit 4 homolog (Arabidopsis thaliana (Mouse-ear cress)), P55034 (parent)
chain: MVLEATMICIDNSEWMRNGDYSPSRLQAQTEAVNLLCGAKTQSNPENTVGILTMAGKGVRVLTTPTSDLGKILACMHGLDVGGEINLTAAIQIAQLALKHRQNKNQRQRIIVFAGSPIKYEKKALEIVGKRLKKNSVSLDIVNFGEDDDEEKPQKLEALLTAVNNNDGSHIVHVPSGANALSDVLLSTPVFTGDEGASGYVSAAAAAAAAGGDFDFGVDPNIDPELALALRVSMEEERARQEAAAKKAADEAGQKDKDGDTASASQETVARTTDKNAEPMDEDSALLDQAIAMSVGDVNMSEAADEDQDLALALQMSMSGEESSEATGAGNNLLGNQAFISSVLSSLPGVDPNDPAVKELLASLPDESKRTEEEESSSKKGEDEKK
partner: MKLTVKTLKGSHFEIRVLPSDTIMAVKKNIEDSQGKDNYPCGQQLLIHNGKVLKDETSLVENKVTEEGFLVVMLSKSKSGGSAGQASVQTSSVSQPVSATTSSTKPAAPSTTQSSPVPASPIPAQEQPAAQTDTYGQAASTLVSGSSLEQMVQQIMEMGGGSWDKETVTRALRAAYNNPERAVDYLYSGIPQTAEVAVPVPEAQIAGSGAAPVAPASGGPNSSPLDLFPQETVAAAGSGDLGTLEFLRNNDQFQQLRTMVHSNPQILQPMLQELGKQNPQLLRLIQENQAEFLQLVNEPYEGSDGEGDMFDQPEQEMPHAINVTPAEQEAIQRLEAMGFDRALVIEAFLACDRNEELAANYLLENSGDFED
B4: 26S proteasome non-ATPase regulatory subunit 4 homolog (Arabidopsis thaliana (Mouse-ear cress)), P55034 (parent)
chain: B3 chain
B5: Proteasomal ubiquitin receptor ADRM1 (Homo sapiens), Q16186 (parent)
chain: MTTSGALFPSLVPGSRGASNKYLVEFRAGKMSLKGTTVTPDKRKGLVYIQQTDDSLIHFCWKDRTSGNVEDDLIIFPDDCEFKRVPQCPSGRVYVLKFKAGSKRLFFWMQEPKTDQDEEHCRKVNEYLNNPPMPGALGASGSSGHELSALGGEGGLQSLLGNMSHSQLMQLIGPAGLGGLGGLGALTGPGLASLLGSSGPPGSSSSSSSRSQSAAVTPSSTTSSTRATPAPSAPAAASATSPSPAPSSGNGASTAASPTQPIQLSDLQSILATMNVPAGPAGGQQVDLASVLTPEIMAPILANADVQERLLPYLPSGESLPQTADEIQNTLTSPQFQQALGMFSAALASGQLGPLMCQFGLPAEAVEAANKGDVEAFAKAMQNNAKPEQKEGDTKDKKDEEEDMSLD

Variants of: B1
Details: with dsk2b_arath DSK2B

effect of a mutation on the interaction | Variant
disrupting interaction strength | I287N;A288N;Y289N;A290N;M291N
disrupting interaction strength | L216N;A217N;L218N;A219N;L220N;I287N;A288N;Y289N;A290N;M291N

Variants of: B2
Details: with ubc_human UBC

effect of a mutation on the interaction | Variant
disrupting interaction strength | M342A;G343A

Variants of: B3
Details: with rd23b_arath RAD23B

Variant | effect of a mutation on the interaction
L226D;A227D;L228D;A229D;L230D;L310N;A311N;L312N;A313D;L314N | disrupting interaction strength
L226D;A227D;L228D;A229D;L230D | with no effect
L286N;L287N;Q289N;A290D | with no effect

Other lines, results leading:

effect of a mutation on the interaction | Variant
disrupting interaction strength | L310N;A311N;L312N;A313D;L314N
decreasing interaction strength | L226D;A227D;L228D;A229D;L230D;L286N;L287N;Q289N;A290D
disrupting interaction strength | L286N;L287N;Q289N;A290D;L310N;A311N;L312N;A313D;L314N

Variants of: B4
Details: with rd23b_human RAD23B

Variant | effect of a mutation on the interaction
L286N;L287N;Q289N;A290D | with no effect
L310N;A311N;L312N;A313D;L314N | disrupting interaction strength

Next, values leading:

effect of a mutation on the interaction | Variant
decreasing interaction strength | L226D;A227D;L228D;A229D;L230D;L286N;L287N;Q289N;A290D
with no effect | L226D;A227D;L228D;A229D;L230D
disrupting interaction strength | L226D;A227D;L228D;A229D;L230D;L310N;A311N;L312N;A313D;L314N
disrupting interaction strength | L286N;L287N;Q289N;A290D;L310N;A311N;L312N;A313D;L314N

Variants of: B4
Details: with dsk2_yeast DSK2, P48510

Variant | effect of a mutation on the interaction
L286N;L287N;Q289N;A290D | with no effect
L310N;A311N;L312N;A313D;L314N | with no effect

More lines, now with the values ahead:

effect of a mutation on the interaction | Variant
disrupting interaction strength | L226D;A227D;L228D;A229D;L230D
with no effect | L286N;L287N;Q289N;A290D;L310N;A311N;L312N;A313D;L314N

Variants of: B4
Details: with ubql2_human UBQLN2, Q9UHD9

Variant | effect of a mutation on the interaction
L286N;L287N;Q289N;A290D | with no effect
L310N;A311N;L312N;A313D;L314N | with no effect

Second part, the variant after the results:

effect of a mutation on the interaction | Variant
disrupting interaction strength | L226D;A227D;L228D;A229D;L230D
with no effect | L286N;L287N;Q289N;A290D;L310N;A311N;L312N;A313D;L314N

Variants of: B5
Details: with ubql1_human UBQLN1, Q9UMX0

effect of a mutation on the interaction | Variant
decreasing interaction | D79N

Variants of: B5
Details: with dsk2_yeast DSK2, P48510

effect of a mutation on the interaction | Variant
disrupting interaction | D79N

Variants of: B5
Details: with ubc_human UBC

effect of a mutation on the interaction | Variant
decreasing interaction | D79N

Variants of: B5
Details: with ubql2_human UBQLN2, Q9UHD9

effect of a mutation on the interaction | Variant
disrupting interaction | L56A

Variants of: B5
Details: with dsk2_yeast DSK2, P48510
Remark: another data set of the same source

effect of a mutation on the interaction | Variant
disrupting interaction | L56A

Variants of: B5
Details: with ubc_human UBC
Remark: another data set of the same source

effect of a mutation on the interaction | Variant
decreasing interaction | L56A

Variants of: B5
Details: with ubql2_human UBQLN2, Q9UHD9
Remark: another data set of the same source

effect of a mutation on the interaction | Variant
disrupting interaction | F98R

Variants of: B5
Details: with dsk2_yeast DSK2, P48510
Remark: another data set of the same source

effect of a mutation on the interaction | Variant
disrupting interaction | F98R

Variants of: B5
Details: with ubc_human UBC
Remark: another data set of the same source

effect of a mutation on the interaction | Variant
decreasing interaction strength | F98R

Variants of: B5
Details: with ubc_human UBC
Remark: another data set of the same source

effect of a mutation on the interaction | Variant
decreasing interaction | F98R

Variants of: B5
Details: with ubql2_human UBQLN2, Q9UHD9
Remark: another data set of the same source

effect of a mutation on the interaction | Variant
disrupting interaction | F76R

Variants of: B5
Details: with dsk2_yeast DSK2, P48510
Remark: another data set of the same source

effect of a mutation on the interaction | Variant
disrupting interaction | F76R

Variants of: B5
Details: with ubc_human UBC
Remark: another data set of the same source

effect of a mutation on the interaction | Variant
decreasing interaction | F76R
